Assay results taken from the supplement of paper PMC9732359.
± gives the uncertainty stated by the source.

Assay: protein stability index of a GFP-peptide fusion (yeast GPS) (PSI 1-4); higher = more stable; sorted into four equal gates, so the index is relative within each strain
Details: pdr5∆
Procedure, shortened: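 Tiled 17-residue yeast protein peptides were fused downstream of GFP in a plasmid that also expresses Cherry, and the pooled library was carried in yeast. Mid-log cultures in leucine-free medium were sorted into four equal gates by GFP/Cherry fluorescence ratio, and plasmids from each gate were PCR-amplified and Illumina-sequenced, with reads assigned to strains by barcodes. The protein stability index for each peptide was each gate's read frequency times its gate number, summed.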
TTTSNTSGTNIAGTFNV [YOR098C/NUP1] gave a protein stability index of 2.54 ± 0.037. For TTTTTTTNNNNTNNNNT [SWI1], the protein stability index was 3.18 ± 0.05. TVAHIQYDFKAVLEEND [RPN14] showed a protein stability index of 2.72 ± 0.2. TVALREIRRFQKSTELL [HHT1] gave a protein stability index of 2.91 ± 0.087. Sequence TVKLTEIVWTSSLIKAG [RPO31] has a protein stability index of 1.69 ± 0.067. TVLVIDNSEYSRNGDFP [RPN10] gave a protein stability index of 2.73 ± 0.066. TVNEPQMSDKHATVVPP [SRB7] gave a protein stability index of 2.83 ± 0.11. In the case of TVPNLPTTMVTNQKDTN [ISW2], the protein stability index is reported as 1.84 ± 0.053. In the case of TVQSWLCDLFVNGSITD [NUT1], the protein stability index is reported as 1.45 ± 0.048. TVSPDFVAATTNAGYTI [FAS1] showed a protein stability index of 2.71 ± 0.053. In the case of TVSPTQDKDAIRKQPDD [SIR2], the protein stability index is reported as 3.11 ± 0.087. Work on TWENEFLDSQRVWAEYA [PRP8] yielded a protein stability index of 2.27 ± 0.072. With TWNGSPFDNSTEEKCKN [YJL039C/NUP192] the protein stability index was 3.38 ± 0.081. In the case of TWYVGNSRGKFDDACNQ [SSN2], the protein stability index is reported as 3.14 ± 0.12. For TYGFSILDIVINNPVNL [FAS1], the protein stability index was 2.37 ± 0.075. In the case of TYIKSEITQQEKGLNEL [SMC4], the protein stability index is reported as 1.7 ± 0.059. For TYRSRAQQVPPYGVYHP [SIN4], the protein stability index was 2.13 ± 0.085. Work on VAAAGITASTLLYADSL [CYT1] yielded a protein stability index of 2.12 ± 0.078. Sequence VAAFVNNYPNVELTYSL [BRR2] has a protein stability index of 2.82 ± 0.087. Work on VAALKAVGAHSDLLKVL [RPL4A] yielded a protein stability index of 3.16 ± 0.11. VAALRFTAGARAKIVKA [RPL18A] gave a protein stability index of 1.4 ± 0.069. VAASIIPFPDHNQSPRN [RPB2] gave a protein stability index of 2.21 ± 0.076. With VADEEANIELTWAEGTF [RPC37] the protein stability index was 2.98 ± 0.087. VAEIEKTADVKRQYVKQ [RPL20A] gave a protein stability index of 3.2 ± 0.088. In the case of VAIDQDKITLHDEKTLA [SIR4], the protein stability index is reported as 2.22 ± 0.096. For VAMCFVINKLDRLILDL [SNU114], the protein stability index was 2.24 ± 0.056. Sequence VARIPRVGGGGTGRSGQ [RPL4A] has a protein stability index of 3.39 ± 0.13. Sequence VASADYESQTFSSKNEW [PRP8] has a protein stability index of 3.4 ± 0.19. Sequence VASLSKRNKLLTIFDSV [YJL039C/NUP192] has a protein stability index of 1.93 ± 0.048. Work on VATEPLLDILVKGETRI [PRP8] yielded a protein stability index of 2.41 ± 0.044. For VCIRPSVMMQDSPASNE [RPO31], the protein stability index was 2.08 ± 0.1. VDAITRCYQPFELFDNK [SNU114] showed a protein stability index of 3.06 ± 0.068. Sequence VDFEKFETFLVDVNNKF [SIN4] has a protein stability index of 3.34 ± 0.059. VDIQIINQYQLLYNLKN [SWI1] showed a protein stability index of 1.54 ± 0.041. For VDKNGAHLYMLEPSGSY [PRE10], the protein stability index was 2.19 ± 0.064. With VDNDNWVYKTKGDGMTS [RPN1] the protein stability index was 3.27 ± 0.065. VDNIVNKYQYSLKQYAG [SRP68] gave a protein stability index of 3.08 ± 0.076. Sequence VDNVTLESYKTQAKKLY [SRP72] has a protein stability index of 2.87 ± 0.14. With VDPFDSDEEESVLDEQE [SNU114] the protein stability index was 3.5 ± 0.12. VDQEMLYEIILAANYLN [SKP1] showed a protein stability index of 1.72 ± 0.05. VDSRNETDHKTNENGET [SRB4] showed a protein stability index of 2.75 ± 0.18. For VDSWDREFLKVDQEMLY [SKP1], the protein stability index was 3.29 ± 0.078. For VDTSTELESMLEDLKNT [RRP6], the protein stability index was 3.03 ± 0.14. For VEEKPGDRGALARASGN [RPL2A], the protein stability index was 3.23 ± 0.13. For VEELPTFHDYDMVKLDI [RRP42], the protein stability index was 2.75 ± 0.063. For VEFKLPKELVPSHEKLK [CDC53], the protein stability index was 2.24 ± 0.045. Sequence VEITFGKEFGDVSVKMG [RRP45] has a protein stability index of 1.68 ± 0.083. With VEKTEKPKKPKGRAYKR [RPS30A] the protein stability index was 3.24 ± 0.091. Sequence VEMAWIMGFISYHNGNL [FAS2] has a protein stability index of 3.2 ± 0.1. With VEPVTERTKLQEHTIFT [SNU114] the protein stability index was 2.35 ± 0.074. VEQTAEVTIEDALKVVL [RPS12] showed a protein stability index of 3.36 ± 0.078. Work on VETNTTVLADEFIAHRL [RPB3] yielded a protein stability index of 3.18 ± 0.054. Work on VEVDITLSPNVTDSSLL [GRR1] yielded a protein stability index of 2.43 ± 0.068. VFALHKYKPTPLYVMDE [SMC4] showed a protein stability index of 2.85 ± 0.12. Work on VFEISENNSDSNSNNNG [SWI1] yielded a protein stability index of 3.03 ± 0.11. For VFERFKTKILEVAIRDV [IRR1], the protein stability index was 1.75 ± 0.09. In the case of VFESLEINNLIQLPASL [ARP9], the protein stability index is reported as 1.88 ± 0.05. In the case of VFLEFSLNFIPITASTS [YML103C/NUP188], the protein stability index is reported as 1.34 ± 0.049. With VFLYFEDNAGVIANPKG [RPL23A] the protein stability index was 1.96 ± 0.051. With VFSHAQTAVTCESCSTV [RPS27B] the protein stability index was 2.46 ± 0.14. VFYAPNVKNYSTTQEIL [RPC34] gave a protein stability index of 1.97 ± 0.071. VFYRGMTMQVAVPRDEL [FAS1] showed a protein stability index of 1.86 ± 0.066. VGFLVQLDLTGIFLHGK [PRP8] showed a protein stability index of 1.85 ± 0.05. Work on VGGTTSISGFKEALLGQ [ARP9] yielded a protein stability index of 2.53 ± 0.053. VGRLWDQTFPINCNKET [ECM29] gave a protein stability index of 2.87 ± 0.12. Sequence VGSENVECTISILRKSS [SNF12] has a protein stability index of 2.23 ± 0.044. For VHLSNGYKMIPGAKPLQ [FAS1], the protein stability index was 2.02 ± 0.076. VHPRKSYKMNSSAADIT [PRP8] showed a protein stability index of 2.88 ± 0.075. Work on VHVIHFQHADNSSMRYG [AAR2] yielded a protein stability index of 2.7 ± 0.073. With VIDTLAAGYGKILGKGR [RPL28] the protein stability index was 2.63 ± 0.085. VIEEDYDDEQNTSAQHV [IRR1] showed a protein stability index of 2.95 ± 0.12. Sequence VIFDASIKDTQNVGQGK [BRN1] has a protein stability index of 2.45 ± 0.12. In the case of VIIKGFKTYRNETIIDN [SMC3], the protein stability index is reported as 2.63 ± 0.27. In the case of VIKLAKYPDYFPEWKKS [ARP9], the protein stability index is reported as 2.94 ± 0.091. VIPSYSKWFNLEKIHSI [SWI3] gave a protein stability index of 1.6 ± 0.049. In the case of VISFGQPKLNPMASSSS [SWI1], the protein stability index is reported as 1.92 ± 0.074. VISIVGGHSLEEISFSL [PRP28] showed a protein stability index of 2.73 ± 0.13. VISNLVPKLESSRTKFW [YJL039C/NUP192] gave a protein stability index of 2.6 ± 0.13. With VIVPQIVLDEVRNKSYP [DIS3] the protein stability index was 2.33 ± 0.089. With VKAILMQRHVKVDGKVR [RPS4A] the protein stability index was 3.09 ± 0.11. Work on VKESNNYYSNKSNSTGN [REC8] yielded a protein stability index of 2.71 ± 0.085. Sequence VKEYQLRDRNFSATGNF [RPL11A] has a protein stability index of 3.27 ± 0.1. With VKIMRDPAKSRTGPKAL [RPS3] the protein stability index was 3.33 ± 0.12. With VKKPTFTFGQSTSENKI [YOR098C/NUP1] the protein stability index was 2.87 ± 0.21. Sequence VKLWEEDPDQEECSGRR [YGL100W/SEH1] has a protein stability index of 3.08 ± 0.081. Work on VKSKIQDKEGIPPDQQR [RPS31] yielded a protein stability index of 3.48 ± 0.075. In the case of VKTTLVSLTQLRCVKYL [RPC82], the protein stability index is reported as 1.27 ± 0.079. Sequence VKVHMDSETSDPNEVEI [DIS3] has a protein stability index of 3.5 ± 0.086. Sequence VKVVDAGNKVGQSEASL [RPP0] has a protein stability index of 3.58 ± 0.22. VLDSYTPSTNEPYARVS [FAS1] gave a protein stability index of 2.76 ± 0.053. Sequence VLEYLAAEILELAGNAA [HTA1] has a protein stability index of 2.44 ± 0.1. For VLISKLSCEKITHYAVR [RRI1], the protein stability index was 1.64 ± 0.051. In the case of VLKEKDVPAYNVTSFMP [SRB8], the protein stability index is reported as 3.01 ± 0.051. VLKKPNRAMEYDALLSI [RET1] showed a protein stability index of 2.33 ± 0.19. Sequence VLPDADVKLLHSQFMKD [YJL039C/NUP192] has a protein stability index of 2.21 ± 0.12. With VLPNTALKTSIQHVGMI [FAS1] the protein stability index was 2.6 ± 0.16. For VLRINKMLSCAGADRLQ [RPL10], the protein stability index was 1.28 ± 0.14. VLRIPEEYLDANVFRLE [MTW1] gave a protein stability index of 3.44 ± 0.097. Work on VLSPDSNIMSDSKKIKV [GAL11] yielded a protein stability index of 2.42 ± 0.095. In the case of VLSTFTAEFGKILAGLH [RPN10], the protein stability index is reported as 3.44 ± 0.15. For VMLLGTPDANLISKPAK [UBP6], the protein stability index was 3.28 ± 0.13. VMRNEIRITSLQGDLTF [SIR4] gave a protein stability index of 2.35 ± 0.062. With VNAPLPTPFKVDDNVDF [RPN2] the protein stability index was 2.75 ± 0.051. VNDSVISAPSMEDEILS [BRN1] gave a protein stability index of 2.29 ± 0.089.
